Target: mouse TNFR1 on L929 cells (mouse) (UniProt P25118)
Assay: cell-based or functional assay

Sequence of mouse TNFR1 on L929 cells (mouse) (P25118 30-454): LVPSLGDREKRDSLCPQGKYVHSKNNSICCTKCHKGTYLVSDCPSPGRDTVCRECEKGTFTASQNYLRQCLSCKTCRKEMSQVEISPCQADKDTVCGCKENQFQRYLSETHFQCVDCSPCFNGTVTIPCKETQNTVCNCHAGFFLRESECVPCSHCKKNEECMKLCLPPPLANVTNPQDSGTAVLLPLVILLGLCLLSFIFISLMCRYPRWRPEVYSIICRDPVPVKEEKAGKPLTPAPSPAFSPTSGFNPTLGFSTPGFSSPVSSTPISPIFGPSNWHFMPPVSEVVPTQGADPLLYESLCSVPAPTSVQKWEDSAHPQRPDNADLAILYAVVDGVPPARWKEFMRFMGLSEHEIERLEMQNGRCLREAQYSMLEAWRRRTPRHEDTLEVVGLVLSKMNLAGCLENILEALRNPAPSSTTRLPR

Substance | ND50, L929 cytotoxicity without TNF-α (agonism)
anti-TNFR1 antibody MAB430 (R&D Systems) | 10 nM
anti-TNFR1 antibody AF-425-PB (R&D Systems) | 0.1 nM
